Experimental data taken from paper PMC3858243, “Escherichia coli Ribosomal Protein S1 Unfolds Structured mRNAs Onto the Ribosome for Active Translation Initiation”.

What was measured:
Test in all cases: EMSA; Not given in the material for EMSA, SPR and filter binding (buffer with monovalent ions and MgCl2; RNA renatured 90°C 1 min, ice, then 25°C 30 min)
[1] = target: ribosomal protein S1 wild type (Escherichia coli, UniProt P0AG67 1-557)
[2] = target: S1Δ3-6 (Escherichia coli, UniProt P0AG67 1-170); details: protein: recombinant; tags: C-terminal His6; label: 5' 32P; pseudoknot
[3] = target: S1Δ4-6 (Escherichia coli, UniProt P0AG67 1-279); details: protein: recombinant; tags: C-terminal His6; label: 5' 32P; pseudoknot

B1: mut-psk-rpsOSD (structured_RNA)
RNA: GGGAUCGCUGAAUUAGAGAUCGGCGUCCUUUCAUUCUAUAUAGUAAGGAGGUUAAAAUGUCUCUAAGU
For B1, the “apparent K (half saturation)” value [1] was ~447 nM, the binding result [2] was “no binding” and the binding signal [3] was 5 fold weaker than WT S1.
